{"source": "paper PMC12352893", "about": "“Neuraminidase 1 secondary deficiency contributes to CNS pathology in neurological mucopolysaccharidoses via brain protein hypersialylation” (The Journal of Clinical Investigation, 2025)", "biological_target": "the molecule itself", "experiment": "SEC; gel filtration of total protein extracts from brain tissue of WT mice; GLB1 and NEU1 enzymatic activities measured in the eluted fractions", "data": [{"protein": "β-galactosidase (GLB1), mouse brain (enzyme, mouse (endogenous in brain tissue), UniProt P23780 30-647, looked up, β-galactosidase (GLB1), mouse, endogenous in brain extracts; detected by its enzymatic activity in gel-filtration fractions; Eluted both in the ~1,200 kDa LMC peak and as a 240 kDa tetramer; also called lysosomal β-galactosidase; source: endogenous, total protein extracts from mouse brain tissue) QRTFKLDYSRDRFLKDGQPFRYISGSIHYFRIPRFYWEDRLLKMKMAGLNAIQMYVPWNFHEPQPGQYEFSGDRDVEHFIQLAHELGLLVILRPGPYICAEWDMGGLPAWLLEKQSIVLRSSDPDYLVAVDKWLAVLLPKMKPLLYQNGGPIITVQVENEYGSYFACDYDYLRFLVHRFRYHLGNDVILFTTDGASEKMLKCGTLQDLYATVDFGTGNNITQAFLVQRKFEPKGPLINSEFYTGWLDHWGKPHSTVKTKTLATSLYNLLARGANVNLYMFIGGTNFAYWNGANTPYEPQPTSYDYDAPLSEAGDLTKKYFALREVIQMFKEVPEGPIPPSTPKFAYGKVALRKFKTVAEALGILCPNGPVKSLYPLTFTQVKQYFGYVLYRTTLPQDCSNPKPIFSSPFNGVRDRAYVSVDGVPQGILDRNLMTALNIRGKAGATLDILVENMGRVNYGRFINDFKGLISNMTINSTVLTNWTVFPLNTEAMVRNHLWGREASDEGHLDGRSTSNSSDLILPTFYVGNFSIPSGIPDLPQDTFIQFPGWSKGQVWINGFNLGRYWPTMGPQKTLFVPRNILTTSAPNNITVLELEFAPCSEGTPELCTVEFVDTPVIS", "values": [{"measurement": "stoichiometry N", "value": 4}]}]}
